Assays:
[1] = target: Fc–Evasin-4 (Rhipicephalus sanguineus); experiment: SPR
[2] = target: Evasin-4–Fc (Rhipicephalus sanguineus); experiment: SPR

B1: CCL23 (ligand)
chain: RVTKDAETEFMMSKLPLENPVLLDRFHATSADCCISYTPRSIPCSLLESYFETNSECSKPGVIFLTKKGRRFCANPSDKQVQVCMRMLKLDTRIKTRKN
Kd [1]: 124 pM | Kd [2]: 232 pM

B2: CCL24 (ligand)
chain: VVIPSPCCMFFVSKRIPENRVVSYQLSSRSTCLKAGVIFTTKKGQQFCGDPKQEWVQRYMKNLDAKQKKASPRARAVAVKGPVQRYPGNQTTC
Kd [1]: 4840 pM | Kd [2]: 708000 pM

B3: CCL1 (ligand)
chain: KSMQVPFSRCCFSFAEQEIPLRAILCYRNTSSICSNEGLIFKLKRGKEACALDTVGWVQRHRKMLRHCPSKRK
Kd [1]: 276 pM | Kd [2]: 97 pM

B4: CCL15 (ligand)
chain: QFTNDAETELMMSKLPLENPVVLNSFHFAADCCTSYISQSIPCSLMKSYFETSSECSKPGVIFLTKKGRQVCAKPSGPGVQDCMKKLKPYSI
Kd [1]: 40 pM | Kd [2]: 16 pM

B5: CCL18 (ligand)
chain: AQVGTNKELCCLVYTSWQIPQKFIVDYSETSPQCPKPGVILLTKRGRQICADPNKKWVQKYISDLKLNA
Kd [1]: 83 pM | Kd [2]: 3630 pM

From article PMC4240464
